Reference: patent publication US20080166364A1 (COVX TECHNOLOGY IRELAND, published 2008)
No end group written: not given here.

T1: human angiopoietin-2 protein (human, UniProt O15123 19-496)
T1 construct: bought; also called Ang-2; Ang2
T1 sequence (looked up): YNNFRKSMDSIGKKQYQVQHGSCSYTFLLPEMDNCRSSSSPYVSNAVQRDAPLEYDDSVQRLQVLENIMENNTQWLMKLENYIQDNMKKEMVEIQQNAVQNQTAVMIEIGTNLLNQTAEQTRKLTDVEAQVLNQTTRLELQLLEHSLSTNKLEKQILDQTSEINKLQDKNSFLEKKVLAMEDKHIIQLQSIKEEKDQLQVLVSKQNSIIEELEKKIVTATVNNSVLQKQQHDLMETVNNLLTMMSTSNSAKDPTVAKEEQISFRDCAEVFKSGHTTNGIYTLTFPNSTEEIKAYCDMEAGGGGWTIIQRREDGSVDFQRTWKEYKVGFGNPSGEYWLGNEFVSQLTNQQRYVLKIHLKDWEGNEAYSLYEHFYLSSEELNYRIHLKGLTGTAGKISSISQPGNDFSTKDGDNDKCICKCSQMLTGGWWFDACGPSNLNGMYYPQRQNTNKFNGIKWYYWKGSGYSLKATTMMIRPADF


Legend:
[1] = biological target: T1, human angiopoietin-2 protein; test: competitive ELISA, coated Ang-2, 0.25 nM hTie-2-Fc; peptide alone
Procedure: For competitive ELISA, human angiopoietin-2 protein and Tie-2-Fc (R&D Systems) were reconstituted without carrier protein. Mouse anti-human Tie-2 (Pharmingen) was used as the primary antibody and goat anti-mouse-IgG1-HRP (Pierce) was used as the secondary antibody. TMB substrate from Pierce was used.
High-binding half-well plates were coated with Ang-2 (100 ng/well) in 50 μl PBS and incubated at 4° C. overnight. Plates were washed three times with washing buffer (0.1% Tween 20, PBS, pH 7.4) and blocked with Superblock (Scytek), 100 μl/well at room temperature (“RT”) for 1 hour. After removing the blocking solution, 50 μl of an Ang-2 binding peptide compound (1 uM and 5× serial dilution) in the presence of 0.25 nM hTie-2-Fc using Superblock as diluent was added and incubated at RT for 2 hours. Plates were washed 3 times with washing buffer. Then, 50 ul of 0.1 ug/ml mouse anti-human Tie-2 diluted in Superblock added and incubated at RT for 1 hour. Following incubation, 50 ul of 1:5,000 dilution of goat anti-mouse IgG-HRP in Superblock was then added and incubated at RT for one hour. After washing 3 times, 50 μl (25 μl TMB+25 μl H₂O₂) was added, and incubated for 3-5 minutes. Color development was monitored and stopped with 25 μl of 2 M H₂SO₄. OD450 nm with a correction wavelength of 540 nm was measured.

[2] = biological target: T1, human angiopoietin-2 protein; test: reverse competitive ELISA, coated Tie-2-Fc, 0.83 nM Ang-2; peptide printed without linker, column headed P
Procedure: For reverse competition ELISA, human Tie-2-Fc, angiopoietin-2 protein, biotinylated anti-human Ang-2 antibody, and streptavidin HRP (R&D Systems) and TMB substrate from Pierce were used.
High-binding half-well plates were coated with Tie-2-Fc (50 ng/well) in 50 μl PBS and incubated at 4° C. overnight. Plates were washed three times with washing buffer (0.1% Tween 20, PBS, pH 7.4) and blocked with Superblock, 150 μl/well at RT for 1 hour. Plates were washed three times. Following washing, 50 μl of an Ang-2 binding peptide compound (50 nM, 5× serial dilution) in the presence of 50 ng/ml (0.83 nM) Ang-2 in Superblock were added and incubated at RT for 1 hour. Plates were washed 3 times, 50 μl of 1 μg/well biotinylated anti-Ang-2 detection antibody in Superblock was added and incubated at RT for 2 hours. Plates were washed 3 times, and 50 μl of streptavidin HRP (1:200 dilution in Superblock) was added at RT for 20 minutes. Plates were washed 3 times, and 50 μl (25 μl TMB+25 μl H₂O₂) substrate solution was added and incubated for 20-30 minutes. Color development was stopped with 25 μl of 2 M H₂SO₄. OD450 nm with a correction wavelength of 540 nm was measured.

Row | IC50 [1] [µM] | IC50 [2] [µM] | Binder
1 | 0.0258 | 0.0364 | QKYQPLDELDKTLYDQFMLQQG-NH2 (not fully specified (N-terminus); also: N-term acyl cap, acyl not given here, not conjugated to linker or antibody) [Compound 21: Ang-2 binding peptide alone]
2 |  | 0.0144 | QXYQPLDELDKTLYDQFMLQQG (not fully specified; N-term acyl cap; C-term NH2 cap; AcK at 2, not conjugated to linker or antibody) [Compound 22: Ang-2 binding peptide alone]
